Source: publication PMC9045774, “The prominent role of a CDR1 somatic hypermutation for convergent IGHV3-53/3-66 antibodies in binding to SARS-CoV-2” (Emerging Microbes & Infections, 2022)

B1: COVOX-222, germline format at residue 27 (reverse mutation) (antibody, V domains shown)
VH: EVQLVESGGGLIQPGGSLRLSCAASGFTVSSNYMSWVRQAPGKGLEWVSVIYSGGSTFYADSVKGRFTISRDNSKNTLYLQMNSLGAEDTAVYYCARGEGSPGNWFDPWGQGTLVTVSS
VL: DVVMTQSPGTLSLSPGERATLSCRASQSVPSSYLAWYQQKPGQAPRLLIYGASTRATGIPDRFSGSGSGTDFTLTISRLEPEDFAVYYCQHYDTSPRFGGGTKVDIK
notes: as the heavy chain of m12 (PDB 7NX6) with residue 27 reverted to the germline F; as the light chain of m12; also called germline format of COVOX-222
B2: BD-236, germline format at residue 27 (reverse mutation) (antibody, V domains shown)
VH: EVQLVESGGGLIQPGGSLRLSCAASGFTVSSNYMSWVRQAPGKGLEWVSVIYSGGSTDYADSVKGRFTISRDKSKNTLYLQMNSLRAEDTAVYYCARDLGEAGGMDVWGQGTTVTVSS
VL: AIQLTQSPSSLSASVGDRVTITCRASQGISSYLAWYQQKPGKAPKLLIYAASTLQSGVPSRFSGSGSGTDFTLTISSLQPEDFATYYCQQLNSYPPAFGGGTKVEIK
notes: as the heavy chain of m10 (PDB 7CHB) with residue 27 reverted to the germline F; as the light chain of m10

Molecular target: T1, SARS-CoV-2 receptor-binding domain (RBD) (SARS-CoV-2, ancestral (Wuhan-Hu-1) …, UniProt P0DTC2)
T1 construct: also called SARS-CoV-2 RBD
Assay: not stated; binding affinities of the residue-27 germline revertants of BD-236, COVOX-222 and CV30 (supplementary Fig. S5); method not named in the sentence (BLI in the experiments around it)

Binder | fold decrease of affinity against COVOX-222 [fold] | fold decrease of affinity against BD-236 [fold]
B1 | 2.02 | 
B2 |  | 1.37
